Experimental findings from article PMC2962916 are described below.

For the data set, the target named is T1, HMGD-M13A HMG box (D74-M13A) (Drosophila melanogaster, UniProt Q05783 1-74, M13A).
T1 sequence: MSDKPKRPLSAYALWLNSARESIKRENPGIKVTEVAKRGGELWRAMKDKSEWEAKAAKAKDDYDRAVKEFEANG
The experiment in a line: X-ray crystallography.

B1: GCGATATCGC decamer duplex (dsDNA)
DNA 1: GCGATATCGC
DNA 2: GCGATATCGC
Turning to B1, the binding result is recorded as “binds”.
